Measured values published in ChEMBL document CHEMBL1156111, “Identification of the amino acid-AZT-phosphoramidase by affinity T7 phage display selection” (Bioorg Med Chem Lett, 2009).

Substrate: Cc1cn([C@H]2C[C@H](N=[N+]=[N-])[C@@H](COP(=O)(O)NCc3c[nH]c4ccccc34)O2)c(=O)[nH]c1=O
Assay: Hydrolysis activity of human HINT1 at pH 7.2 by continuous fluorescence assay

B1: Adenosine 5'-monophosphoramidase HINT1 (Homo sapiens), P49773 (protein)
chain: MADEIAKAQVARPGGDTIFGKIIRKEIPAKIIFEDDRCLAFHDISPQAPTHFLVIPKKHISQISVAEDDDESLLGHLMIVGKKCAADLGLNKGYRMVVNEGSDGGQSVYHVHLHVLGGRQMHWPPG
Q: For B1, which Km is on record?
A: 981 µM
